Results on three molecules are retold here after PMC12033236.

Data set [1] addresses T1, GST-GS2 (OsGRF4) (Oryza sativa, UniProt Q6ZIK5 1-394).
T1 sequence: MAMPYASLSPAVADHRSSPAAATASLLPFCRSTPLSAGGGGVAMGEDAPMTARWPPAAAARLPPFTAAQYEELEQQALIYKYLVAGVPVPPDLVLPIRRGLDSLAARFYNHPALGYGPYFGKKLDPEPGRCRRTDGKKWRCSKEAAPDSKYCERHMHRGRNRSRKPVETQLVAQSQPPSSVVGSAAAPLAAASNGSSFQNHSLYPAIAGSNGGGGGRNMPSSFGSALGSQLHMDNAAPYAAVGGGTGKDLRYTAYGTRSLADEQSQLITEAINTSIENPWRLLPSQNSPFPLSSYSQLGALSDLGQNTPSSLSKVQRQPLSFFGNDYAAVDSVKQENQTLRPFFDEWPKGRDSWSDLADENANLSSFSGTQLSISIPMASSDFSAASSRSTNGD
Put plainly: EMSA. Background: A gel shift assay detects complexes by their altered migration in electrophoresis.

For data set [2], the target named is T1, GST-GS2 (OsGRF4). Put plainly: competition.

B1: SUG1 probe A-m (dsDNA)
DNA 1: CGCTACGTTCACCCAAAGCCGTTGTTA
DNA 2: TAACAACGGCTTTGGGTGAACGTAGCG
Take B1: the binding result with GST-GS2 (OsGRF4) [1] is “no binding”.

B2: SUG1 unlabeled probe A (competitor) (dsDNA)
DNA 1: CGCACAGTCCACCCAAAGCCGTTGTTA
DNA 2: TAACAACGGCTTTGGGTGGACTGTGCG
Turning to B2, in the data set with GST-GS2 (OsGRF4) [2], the binding result is listed as “binds”.

B3: SUG1 probe A (dsDNA)
DNA 1: CGCACAGTCCACCCAAAGCCGTTGTTA
DNA 2: TAACAACGGCTTTGGGTGGACTGTGCG
For the molecule B3, in the data set with GST-GS2 (OsGRF4) [1], the binding result is “binds”.
